The values below come from patent US20190202901A1.

Test [1] addresses recombinant human IGF-1R protein (R&D Systems, Cat 391-GR) (human) (UniProt P08069). The experiment in a line: direct ELISA on rhIGF-1R coating, dose response. (An ELISA detects its analyte on a solid surface through an enzyme-linked reagent.)
In test [2] the target is recombinant murine IGF-1R protein (R&D Systems, Cat 6630-GR/Fc) (murine) (UniProt Q60751). Nature of the test: direct ELISA, rmIGF-1R coating, antibody at 5 µg/ml.
The target of test [3] is recombinant human IGF-1R protein (R&D Systems, Cat 391-GR) (human) (UniProt P08069). The experiment in a line: direct ELISA, rhIGF-1R coated, goat anti-mouse IgG-HRP, TMB, OD 450 nm; Prism sigmoidal dose-response (variable slope) fit.
Test [4] shares this target. The experiment in a line: direct ELISA, rhIGF-1R coating, antibody at 5 µg/ml.

B1: 816C12 (antibody, V domains shown)
VH: EVQLQQSGPELVKPGASVKMSCKASGHTFTSYVLHWMKRKPGQGLEWIGYINPHNDVTKYNENFKGKATLTSDKYSSTVYMEVSSLTSEDSAVYYCVSTAYYGNGRYFDVWGAGTTVTVSS
VL: DIQMTQTTSSLSASLGDRVTISCRASQDINNYLNWYQQKPDGTVKLLIYYTSRLHSGVSSRFSGSGSGTDYSLTISNLEQEDIATYFCQQGNTLPWTFGGGTKLEIK
B1: the EC50 in test [1] worked out at 0.41 nM. Besides, the OD in test [2] turned out to be 0.065 OD 450 nm. Moreover, in test [3], the BOTTOM (best-fit value) is 0.116 OD (450 nm), the EC50 amounted to 0.417 nM, the LOGEC50 is -9.38 log C [M] and the TOP (best-fit value) is 2.44 OD (450 nm). Further, the OD in test [4] is 2.62 OD 450 nm.

B2: 810D12 (antibody, V domains shown)
VH: EVQLQQSGPELVKPGASVKMSCKASGHTFTSYMLHWVKQKPGQGLEWLGFINPYNDVTKYNENFKGKATLTSDKSSSTAYMELNSLTSEDSAVYFCVTTAYYGNGRYFDVWGAGTTVTVSS
VL: DIQMTQTTSSLSASLGDRVTISCRASQDITNYLTWYQQKPDGTVKVLIYYTSRLYSGVPSRFSGSGSGSDYSLTINNLEQEDIATYFCQQGYSLPWTFGGGTKLEIK
For the molecule B2, the EC50 in test [1] worked out at 0.51 nM. In test [2], the OD is 1.29 OD 450 nm. Also, in test [3], the BOTTOM (best-fit value) was 0.0807 OD (450 nm), the EC50 is 0.513 nM, the LOGEC50 was -9.29 log C [M] and the TOP (best-fit value) was 2.64 OD (450 nm). The OD in test [4] worked out at 2.14 OD 450 nm.

As usually defined, the EC50 is the concentration that produces a half-maximal response.
